Data taken from patent US20260092179A1, “GENETICALLY MODIFIED HOST CELLS PRODUCING VIOLACEIN, ANALOGUES, AND DERIVATIVES THEREOF” (OCTARINE BIO APS, priority 2022, published 2026).

B1: Cp73B: glycosyltransferase from Carica papaya (SEQ ID NO: 72) (protein, listed as Carica papaya)
chain: MGSEVLHHDYSQLNIFFFPFMAHGHMIPTLDMAKLFATHGAKTSIITTPLNLPFFSKSIERFSKQTGLEIGVKLLNFPSVEVGLPSGCENADSLPAGEPLIVNKFFAAAGMLKDPLERLLQEFKPDCLIADMFFPWTTDAAAKFDIPRLVFHGTSFFALSASECIRLYTPFNNVSSDSEPFLVPTLPDEIRLTRNQLADFAMKEGDENGIHRLIKEAKESELKSYGVVVNSFYELEPAYADHYRNFLKRKAWHIGPVSLCNKTVEDKAERGKRASIDEDECLKWLNSKAPNSVIYICFGSMANFNSAQLMEIATALDASGQEFIWVVRREKNENNQEDWLPEGFEQRTEGKGLIIRGWAPQVLILEHEAVGGFVTHCGWNSTLEGVTAGMPMVTWPVSAEQFYNEKLVTEVLKIGLSVGVKKWVRSEGDFVSREKVEQAVREIMVGSEAVERRMRAKAMADMARAAVEKGGSSYNDLNALLREVSLMRRQQSQNQ
B2: Pt73Y: glycosyltransferase enzyme from Populus trichocarpa (SEQ ID NO. 64, 66) (protein, listed as Populus trichocarpa)
chain: MGSLGHQLHIFFLPFFAHGHMIPSVDMAKLFASRGIKTTIITTPLNAPFFSKTIQKTKELGFDINILTIKFPAAEAGLPEGYENTDAFIFSENAREMTIKFIKATTFLQAPFEKVLQECHPDCIVADVFFPWATDAAAKFGIPRLVFHGTSNFALSASECVRLYEPHKKVSSDSEPFVVPDLPGDIKLTKKQLPDDVRENVENDFSKFLKASKEAELRSFGVVVNSFYELEPAYADYYKKVLGRRAWNVGPVSLCNRDTEDKAGRGKETSIDHHECLKWLDSKKPNSVVYICFGSTTNFSDSQLKEIAAGLEASGQQFIWVVRRNKKGQEDKEDWLPEGFEERMEGVGLIIRGWAPQVLILDHEAIGAFVTHCGWNSTLEGITAGKPMVTWPIFAEQFYNEKLVTDVLKTGVGVGVKEWFRVHGDHVKSEAVEKTITQIMVGEEAEEMRSRAKKLGETARKAVEEGGSSYSDFNALIEELRWRRP
B3: Bs109_1: glycosyltransferase from Bacillus subtilis (SEQ ID NO: 68) (protein, listed as Bacillus subtilis)
chain: MKKYHISMINIPAYGHVNPTLALVEKLCEKGHRVTYATTEEFAPAVQQAGGEALLYHTSLNIDPKQIREMMEKNDAPLSLLKESLSILPQLEELYKDDQPDLIIYDFVALAGKLFAEKLNVPVIKLCSSYAQNESFQLGNEDMLKKIREAEAEFKAYLEQEKLPAVSFEQLAVPEALNIVFMPKSFQIQHETFDDRFCFVGPSLGERKEKESLLIEKDDRPLMLISLGTAFNAWPEFYKMCIKAFRDSSWQVIMSVGKAIDPESLEDIPANFTIRQSVPQLEVLEKADLFISHGGMNSTMEAMNAGVPLVVIPQMYEQELTANRVDELGLGVYLPKEEVTVSSLQEAVQAVSSDQELLSRVKNMQKDVKEAGGAERAAAEIEAFMKKSAVPQ
B4: Bs109A1: glycosyltransferase from Bacillus subtilis (SEQ ID NO: 70) (protein, listed as Bacillus subtilis)
chain: MKKHHISMINIPAYGHVNPTLALVEKLCEKGHRVTYATTEEFAPAVQQAGGEALIYHTSLNIDPKQIREMMEKNDATLSLLKESLSILPQLEELYKDDQPDLIIYDFVALAGKLFADKLNVPVIKLCSSYAQNESFQLGNEDMLKKIKEAEAEFKAYLEQEQLPAVSFEQLAVPEALNIVFMPKSFQIQHETFDDRFCFVGPSLGKRTEQESLLIDKGDRPLMLISLGTAFNAWPEFYKMCIDAFRDSSWQVIMSVGKSIDPESLDDTPANFTIRQSVPQLEVLAKADLFISHGGMNSTMEAMNAGVPLVVIPQMYEQELTAKRVDELGLGVYLQREEVTVSKLQEAVQAVSGDQELLSRVKSMQKDVKEAGGAERAAAEIEAFMKKSAVPQ

Columns and labels:
[1] = In vitro glycosylation of violacein by purified UGT enzymes (% conversion); type: biochemical; settings: for Product % production: Mono-glucoside / Product % production: Total conversion / Product % production: Di-glucoside / Product % production: Penta-glucoside / Product % production: Tetra-glucoside / Product % production: Tri-glucoside: 350 μM violacein, 24 h incubation at 30° c.
Procedure: (§1) Glycosyltransferase (UGT) enzymes were produced and purified as follows. 5 mL of 2× concentrated LB medium+appropriate antibiotic (50 μg/mL) was inoculated with E. coli XJb (DE3) strains expressing a plasmid of interest and incubated overnight at 30° C. with shaking. The following day, 50 ml TB medium+antibiotic in 250 ml baffled flasks was inoculated with 0.5 mL overnight cell culture and incubated for 3.5 hrs at 30° C. The cell cultures were then induced with 3 mM arabinose, 0.1 mM IPTG and Incubated for 24 h at 25° C., with shaking. The following day, the cells were collected by centrifugation at 6500×g for 10 mins at 4° C. Cells were resuspended in 5 mL ice-cold protein extraction buffer (50 mM Tris-HCl pH7.4+1 mM phenylmethanesulfonyl fluoride+1 cOmplete™, mini, EDTA-free Protease Inhibitor Cocktail tablet (Roche). The resuspended material was transferred to five 1.5 mL eppendorf tubes and kept at −80° C. for at least 15 mins. The tubes were then thawed at room temperature, as the tubes were thawing the following reagents were added; 2.6 mM MgCl2, 1 mM CaCl2, 300 U/mL DNase solution (DENARASE®, C-lecta) and 0.2 mg/mL lysozyme (Sigma) dissolved in MilliQwater. Tubes were gently inverted to mix then were incubated for 10-15 mins at 37° C. […] of 4× Binding buffer was then added to the tubes (to final concentration of 50 mM Tris-HCl pH7.4, 10 mM imidazole, 500 mM NaCl and the pH adjusted to 7.4 with HCl). The mix was centrifuged at 10000×g for 30 mins at 4° C., the supernatant transferred to a fresh eppendorf tubes and centrifuged again to remove any remaining cellular debris at 10000×g for 30 minutes at 4° C. While the enzyme prep was centrifuging, HisPur 0.2 ml spin column (Thermo Scientific) are prepared as instructed by manufacturer. HisPur column was washed with MilliQ water and equilibrated with two resin-bed volumes of 1×his-binding buffer two times. HisPur column was centrifuged at 700×g for 2 minutes to remove buffer. 600 μL of collected supernatant from the centrifuged enzyme preparation was transferred to the HisPur column and then incubated at 4° C. with gentle shaking by inversion for 30 minutes. After 30 minutes, the unbound protein was removed by centrifugation 700×g for 2 min. The remaining 600 μL of collected supernatant from the centrifuged enzyme preparation was loaded to the HisPur column and incubated again at 4° C. with shaking. Unspecific binding of other proteins was removed by washing twice with 1× binding buffer (50 mM Tris-HCl, 0.5M NaCl, 10 mM Imidazole, pH 7.4). Enzyme was resuspended in 200 μl elution buffer for 2 minutes before elution by centrifugation (700×g for 2 minutes at 4° C.). Enzymes were used immediately in in vitro enzyme assays or stored at −20° C. in 50% glycerol until needed.
(§2) For in vitro studies of glycosyl transferase performance in glycosylating violacein and violacein derivatives, purified glycosyl transferases were prepared as described in Example 4 and in vitro enzyme assays run as described below in Table 19.
(§3) The reaction mixture was scaled up or down as required. The reaction mixture was incubated without shaking at 30° C. for 24 hours. Extraction and analysis were performed as described in Examples 3 and 5. To confirm the identity of the produced glycosides LC-MS/QTOF was used as described above to confirm the expected mass and fragmentation pattern of each detected molecule. Quantification of violacein glycoside or other violacein derivative glycoside production was done by comparing the peak area of the substrate and the produced glycoside with authentic analytical standards (where available), where a standard was unavailable, quantification was achieved by comparing with an authentic analytical standard of the substrate. % Conversion of a substrate to a glycoside by specific Glycosyl transferases was calculated by measuring the decrease in substrate and increase in product after 24 h incubation. […]

[2] = In vitro glycosylation of proviolacein by purified UGT enzymes (% conversion); type: biochemical; settings: 350 μM proviolacein, 24 h incubation at 30° c.
Procedure: as §1, §2, §3

| Molecule | Product % production: Mono-glucoside [1] [%] | Product % production: Total conversion [1] [%] | Product % production: Mono-glucoside [2] [%] | Product % production: Total conversion [2] [%] | Product % production: Di-glucoside [1] [%] | Product % production: Penta-glucoside [1] [%] | Product % production: Tetra-glucoside [1] [%] | Product % production: Tri-glucoside [1] [%] | reduction in violacein concentration compared to the no-enzyme control ([1]; 24 h incubation at 30° C., HPLC) [%] | Product % production: Di-glucoside [2] [%] | Product % production: Penta-glucoside [2] [%] | Product % production: Tetra-glucoside [2] [%] | Product % production: Tri-glucoside [2] [%] |
| --- | --- | --- | --- | --- | --- | --- | --- | --- | --- | --- | --- | --- | --- |
| B1 | 25.65 | 25.65 | 8.12 | 8.12 | – | – | – | – | – | – | – | – | – |
| B2 | 8.69 | 54.41 | 0.12 | 3.4 | 8.95 | 10.98 | 10.31 | 15.47 | 75 | 0.15 | 0.78 | 1.22 | 1.13 |
| B3 | 9.02 | 30.93 | 2.12 | 6.69 | – | – | 11.12 | 10.80 | – | – | – | 3.34 | 1.23 |
| B4 | 11.05 | 62.47 | 2.45 | 10.11 | 10.57 | 11.46 | 14.10 | 15.29 | – | 1.45 | 2.11 | 1.98 | 2.12 |
